The chains are these.
B1: anti-Gal3 scFv G03 (scFv, V domains shown, not shown: small tags and cut ends)
VH: EVQLVESGGSLVKPGGSLRLSCAASGFTFSNYAMNWVRQAPGKGLEWISSIYGSSRYIYYADFVKGRFTISRDNAKNSLYLQMNSLRAEDTAVYYCVRSYNGGMDVWGRGTLVTVSS
VL: QSVLTQPASVSGSPGQSITISCAGTSSDVGGYYNVAWYQQHPGKAPKLMIYYDSYRPSGVSNRFSGSKSGNTASLTISGLQAEDEADYYCSSSTGYSTRVFGGGTKLEIK
notes: Periplasmic extract from E. coli; also called G03 (scFv)
B2: anti-Gal3 scFv H10 (scFv, V domains shown, not shown: small tags and cut ends)
VH: EVQLVESGGSLVKPGGSLRLSCAASGFTFSNYYMNWVRQAPGKGLEWISYINGASRDISYADFVKGRFTISRDNAKNSLYLQMNSLRAEDTAVYYCVRSSYGYSNYGSGMDVWGRGTLVTVSS
VL: B1 VL with Y32S, Y52N, S54A, Y55N, S93N, G95A, Y96D
notes: Periplasmic extract from E. coli; also called H10 (scFv)
B3: anti-Gal3 scFv E02 (scFv, V domains shown, not shown: small tags and cut ends)
VH: EVQLVESGGSLVKPGGSLRLSCAASGFTFSNYAMNWVRQAPGKGLEWISSIYGSSRSISYADFVKGRFTISRDNAKNSLYLQMNSLRAEDTAVYYCVRSSYNYYYGNGMDVWGRGTLVTVSS
VL: B1 VL with Y33G, N34G, A36S, G95S
notes: Periplasmic extract from E. coli; also called E02 (scFv)
B4: anti-Gal3 scFv B12 (scFv, V domains shown, not shown: small tags and cut ends)
VH: EVQLVESGGSLVKPGGSLRLSCAASGFTFSNDDMNWVRQAPGKGLEWISSIDGSSRSIYYADFVKGRFTISRDNAKNSLYLQMNSLRAEDTAVYYCVRSSGYSGGGMDVWGRGTLVTVSS
VL: B1 VL with Y32S, Y52S, S93Y, G95S, Y96N, T98A
notes: Periplasmic extract from E. coli; also called B12 (scFv)
B5: anti-Gal3 scFv D11 (scFv, V domains shown, not shown: small tags and cut ends)
VH: B1 VH with A33N, Y100S, N101Y
VL: B1 VL with Y32S, S93Y
notes: Periplasmic extract from E. coli; also called D11 (scFv)
B6: anti-Gal3 scFv E01 (scFv, V domains shown, not shown: small tags and cut ends)
VH: EVQLVESGGSLVKPGGSLRLSCAASGFTFSNNYMNWVRQAPGKGLEWISNINGASRNIAYADFVKGRFTISRDNAKNSLYLQMNSLRAEDTAVYYCVRSSDYDGGMDVWGRGTLVTVSS
VL: B1 VL with Y32N, Y33S, N34Y, A36S, G95Y, Y96G
notes: Periplasmic extract from E. coli; also called E01 (scFv)
B7: anti-Gal3 scFv E07 (scFv, V domains shown, not shown: small tags and cut ends)
VH: B1 VH with A33N, S50N, N101Y
VL: B1 VL with N34S, A36S, Y55N, S93Y
notes: Periplasmic extract from E. coli; also called E07 (scFv)
B8: anti-Gal3 scFv E12 (scFv, V domains shown, not shown: small tags and cut ends)
VH: B1 VH with Y57S, Y100N, G102A
VL: B1 VL with N34D, A36S, S93Y, G95S
notes: Periplasmic extract from E. coli; also called E12 (scFv)
B9: anti-Gal3 scFv D06 (scFv, V domains shown, not shown: small tags and cut ends)
VH: B1 VH with A33N, Y100G, N101Y
VL: B1 VL with Y33N, N34G, A36S, S93G, G95D
notes: Periplasmic extract from E. coli HB2151 (pHEN phagemid); also called D06 (scFv)
B10: anti-Gal3 scFv H07 (scFv, V domains shown, not shown: small tags and cut ends)
VH: B1 VH with A33N, S50N, Y52D, N101Y
VL: B1 VL
notes: Periplasmic extract from E. coli; also called H07 (scFv)
B11: anti-Gal3 antibody B12 (antibody, V domains shown)
VH: B4 VH
VL: B1 VL with Y32S, Y52S, S93Y, G95S, Y96N, T98A
B12: anti-Gal3 antibody E12 (antibody, V domains shown)
VH: B1 VH with Y57S, Y100N, G102A
VL: B1 VL with N34D, A36S, S93Y, G95S
B13: anti-Gal3 variant antibody E07-G1 (antibody, V domains shown)
VH: B1 VH with S10G, A33N, S50N, F63S, N101Y
VL: QSALTQPRSVSGSPGQSVTISCTGTSSDVGGYYSVSWYQQHPGKAPKLMIYYDSNRPSGVPDRFSGSKSGNTASLTISGLQAEDEADYYCSSYTGYSTRVFGQGTKLEIK
notes: Variant of E07 with framework mutations to germline; captured by anti-human Fc in SPR
B14: anti-Gal3 variant antibody E07-G2 (antibody, V domains shown)
VH: B1 VH with S10G, A33N, I48V, S50N, F63S, N101Y
VL: B13 VL
notes: as for B13
B15: anti-Gal3 variant antibody D06-G2 (antibody, V domains shown)
VH: B1 VH with S10G, A33N, I48V, F63S, Y100G, N101Y
VL: B1 VL with V3A, A23T, Y33N, N34G, A36S, S93G, G95D, G103Q
notes: Variant of D06 with framework mutations to germline; captured by anti-human Fc in SPR
B16: anti-Gal3 variant antibody D11-G2 (antibody, V domains shown)
VH: B1 VH with S10G, A33N, I48V, F63S, Y100S, N101Y
VL: B1 VL with V3A, A23T, Y32S, S93Y
notes: Variant of D11 with framework mutations to germline; captured by anti-human Fc in SPR
B17: anti-Gal3 variant antibody D06-G1 (antibody, V domains shown)
VH: B1 VH with S10G, A33N, F63S, Y100G, N101Y
VL: B1 VL with V3A, A23T, Y33N, N34G, A36S, S93G, G95D, G103Q
notes: as for B15
B18: anti-Gal3 variant antibody D11-G1 (antibody, V domains shown)
VH: B1 VH with S10G, A33N, F63S, Y100S, N101Y
VL: B1 VL with V3A, A23T, Y32S, S93Y
notes: as for B16

Where a chain is given by its changes, count along the chain named.

T1 sequence (P09382 2-135 limits assumed): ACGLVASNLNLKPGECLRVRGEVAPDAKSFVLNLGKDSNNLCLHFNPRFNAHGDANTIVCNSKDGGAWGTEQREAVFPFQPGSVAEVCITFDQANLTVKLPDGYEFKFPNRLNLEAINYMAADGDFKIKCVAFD

One assay concerns the target T1, human full-length Galectin-1 (human, UniProt P09382 2-135).
T1 construct: full-length; Histidine-tagged; also called Hu-Gall; Gall
Kind of assay: ELISA on His-tag-immobilised antigen (3 µg/mL), periplasmic extract with scFv, anti-scFvTag.HRP, OD 450 nm. On the procedure:
(§1) Hu-Gal3-FL, Hu-Gal3-CRD, m-Gal3-FL, Hu-Gall and Hu-Gal7 were immobilized at 3 μg/mL final concentration through their histidine tag on functionalized microplates following internal process. Periplasmic extracts containing scFvs were added into the wells and detected with an anti-scFvTag.HRP (horseradish peroxidase) antibody. Rabbit antibodies directed against Gal3 (ab53082-abcam reference), Gall (ab25138-abcam reference), and Gal7 (ab108623-abcam reference) were used at 5 μg/mL as antigen-coating positive controls and detected with an anti-rabbit.HRP secondary antibody (7074S-Cell Signaling reference).
With B1, the binding result is listed as “no binding”.
Turning to B2, the binding result is “no binding”.
With B3, the binding result is “no binding”.
B4: the binding result is recorded as “no binding”.
Turning to B5, the binding result is on record as “no binding”.
On the same count and under the same terms, in the case of B6 it was “no binding”.
Turning to B7, the binding result is reported as “no binding”.
As for B8, the binding result is reported as “no binding”.
On the same count and under the same terms, as for B9, the entry is “no binding”; as for B10, “no binding”.

In another assay the target is T2, human full-length Galectin-7 (human, UniProt P47929 1-136).
T2 construct: full-length; Histidine-tagged; also called Hu-Gal7; Gal7
T2 sequence (P47929 whole entry): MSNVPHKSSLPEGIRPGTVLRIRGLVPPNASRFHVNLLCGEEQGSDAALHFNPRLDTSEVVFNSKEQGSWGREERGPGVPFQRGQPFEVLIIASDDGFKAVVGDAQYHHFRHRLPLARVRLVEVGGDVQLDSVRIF
Described as above. On the procedure: as §1
For B1, the binding result was “no binding”.
With B2, the binding result is on record as “no binding”.
As to B3, the binding result is given as “no binding”.
For B4, the binding result is given as “no binding”.
The same measure, in the same setting: in the case of B5 it was “no binding”; in that of B6, “no binding”; in that of B7, “no binding”.
For the molecule B8, the binding result is “no binding”.
With B9, the binding result is on record as “no binding”.
Take B10: the binding result is given as “no binding”.

Another assay concerns the target T1, human full-length Galectin-1. The assay is described as follows: ELISA on immobilised antigen (3 µg/mL), purified IgG at 15-20 µg/mL, anti-Fab.HRP, OD 450 nm. As for the experimental part:
(§2) IgG specificity to Gal3 was tested by checking the absence of binding on human Gall and Gal7 by ELISA.
(§3) Hu-Gall and Hu-Gal7 were immobilized at 3 μg/mL. Purified IgGs were added into the wells (15-20 μg/mL final concentration) and detected with an anti-Fab.HRP antibody. Rabbit antibodies directed against Gall (Abcam ab25138 reference) and Gal7 (Abcam ab108623 reference) were used at 5 μg/mL as antigen-coating positive controls and detected with an anti-rabbit.HRP secondary antibody (7074S-Cell Signaling reference).
Take B11: the binding result is “no binding (tested: 15-20 µg/mL)”.
In the case of B12, the binding result is listed as “no binding (tested: 15-20 µg/mL)”.

The target of a further assay is T2, human full-length Galectin-7. Described as above. On the procedure: as §2, §3
As to B11, the binding result is given as “no binding (tested: 15-20 µg/mL)”.
Still for that read-out and setting: in the case of B12 it was “no binding (tested: 15-20 µg/mL)”.

The target of another assay is T3, full length human Galectin-3 (human, UniProt P17931 2-250).
T3 construct: Printed as 'full length'; recombinant, immobilized through a histidine tag; also called hu-Gal3-FL; Hu-Gal3-FL
T3 sequence (P17931 2-250 limits assumed): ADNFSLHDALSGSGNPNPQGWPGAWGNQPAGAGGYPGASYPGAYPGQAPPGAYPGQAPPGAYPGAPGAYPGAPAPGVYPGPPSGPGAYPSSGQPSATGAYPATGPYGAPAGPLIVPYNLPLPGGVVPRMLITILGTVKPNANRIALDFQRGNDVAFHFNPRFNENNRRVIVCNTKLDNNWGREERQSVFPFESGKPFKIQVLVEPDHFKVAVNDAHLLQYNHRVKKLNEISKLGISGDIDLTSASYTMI
The assay is described as follows: SPR Biacore T-200, antibody captured by anti-human Fc, Gal3 in solution. As for the experimental part: (§4) The CM5 sensor surface was first immobilized with an anti-human Fc mAb using a standard protocol. The entire sensor surface was first activated by injecting a 1:1 (v/v) mixture of 400 mM EDC and 100 mM NHS at a flow rate of 10 μL/minute for 7 minutes. Monoclonal anti-human Fc antibody (Millipore AP113), 25 μg/mL in Na acetate pH5, 360 s were flowed at 10 μL/minute to reach 10000 RU on both flow cells followed by the injection of 1 M ethanolamine, pH8.5 for 7 minutes at a flow rate of 10 μL/minute. During the entire immobilization procedure, HBS-P was used as the running buffer.
(§5) Antibody samples were prepared at 5 μg/ml and were injected for 30 seconds at 10 μL/minute. In general, 400 to 680 resonance units of antibodies were captured on the chip.
Molecule B13 had a Kd of 12 nM.
B14 had a dissociation constant Kd of 15 nM.
Turning to B11, the Kd worked out at 8.8 nM.
In turn, B15 registered a Kd of 6.8 nM.
Take B16: binding was characterised by a dissociation constant (Kd) of 18 nM.
The molecule B17 displayed a dissociation constant (Kd) of 9.6 nM.
On to B12, for which the Kd is 6.64 nM.
On the same count and under the same terms, as for B18, the figure is 15 nM.

The next assay deals with T4, full length mouse Galectin-3 (mouse, UniProt P16110 2-264).
T4 construct: Printed as 'full length'; recombinant, immobilized through a histidine tag; also called m-Gal3-FL; murine Gal3
T4 sequence (P16110 2-264 limits assumed): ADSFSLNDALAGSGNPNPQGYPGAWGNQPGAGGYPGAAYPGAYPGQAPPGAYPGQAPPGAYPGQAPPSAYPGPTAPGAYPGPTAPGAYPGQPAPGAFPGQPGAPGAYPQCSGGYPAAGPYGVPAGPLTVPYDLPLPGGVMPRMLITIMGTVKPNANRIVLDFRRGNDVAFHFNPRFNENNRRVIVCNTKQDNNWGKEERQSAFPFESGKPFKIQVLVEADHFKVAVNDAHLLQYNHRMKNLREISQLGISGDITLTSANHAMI
The description is as above. On the procedure:
as §4, §5
With B11, the equilibrium dissociation constant (Kd) stood at 3.47 nM.
B12: the dissociation constant Kd is 7.7 nM.
